# In patent publication US20230272117A1 (published 2023):
# Substitutions are numbered along the chain they refer to.
# B1: C1.844 (antibody, V domains shown)
# VH: EVQLKESGPGLVQPSQTLSLTCTVSGFSLTSNGVIWVRQPPGKGLEWIAAISSGGNIYYNSGLKSRLGISRDTSKSQVFLKMNSLQTEDTAIYFCTRARGTTTAYVMDAWGQGASVTVSS
# VL: DIVMTQSPSSLAVSAGETVNINCKSSQSLLYSVNQKNYLAWYQQKPGQSPKLLIYWASTRQSGVPDRFIGSGSGTDFTLTISSVQAEDLAIYYCQQYYDTLMKMFGAGTKLELK
# B2: C1.841 (antibody, V domains shown)
# VH: EVQLLESGPGLVQPSQTLSLTCTVSGFSLTNNGVSWVRQPPGKGLEWVAAMSSGGNIYYNSAFKSRLSISRHTSKSQVLLKMNSLQTEDTAMYFCARHRGYYGYNWGYFDYWGQGVMVTVSS
# VL: NIQLTQSPSLLSASVGDSVSLRCKGSQNIYNYLAWYQQKLGEAPKLLIYKTNNLQTGIPSRFSGSGSGTDYTLTISSLNSEDLATYYCCQYNNGYTFGAGTKLELK
# B3: C1.847 (antibody, V domains shown)
# VH: B2 VH with L5K, V48I, M51I, Y59H, F63L, H72N, S74A, K75Q, V116T, M117L
# VL: B2 VL with S18R, S20T, R22S, N53S, N79H
# B4: C1.855 (antibody, V domains shown)
# VH: B2 VH with L5K, N31S, V48I, M51I, S53N, V116A, M117S
# VL: B2 VL with S18R, S20T, R22S, Y30N, A34G, K45R, N53S, N79H, C89Y
# B5: C1.845 (antibody, V domains shown)
# VH: B2 VH with L5V, V48I, M51I, N56S, S61L, H72N, S76G, V116A, M117S
# VL: B2 VL with S18R, S20T, R22S, Y30N, N53S, T69S, N79H, C89Y, N93D
# B6: C1.851 (antibody, V domains shown)
# VH: B2 VH with L5K, V37I, V48I, M51I, H72N, S76R, V116A, M117S
# VL: NIQLTQSPSLLSASVGDRVTLSCKGSQNINNYLAWYQQKLGEAPKLLIYKTNSLQTGIPSRFSGSGSGTDYTLTISSLHSEDLATYYCCQYNNGYTFGAGTKLELKR
# B7: C1.830B (antibody, V domains shown)
# VH: EVQLKESGPGLVRPSQTLSLTCSVSGFSLTNYNVHWVRQPTGKGLEWMGIIWTGGYTDYNSDLKSRLSITRDTSKSQVFLKMNGLQTEDVATYYCARERHTMGITKSWYFDYWGQGASVTVSS
# VL: DILMTQSPASLSASLGETISIECLASEGIFSYLGWYQQKPGKSPQLLIYGANSLQAGVPSRFSGSGSGTQYSLKISSMQPEDEGDYFCQQSYKFPVTFGSGTKLELK
# B8: C1.309 (antibody, V domains shown)
# VH: QVQLKESGPGLVAPSQSLSITCTVSGFSLTSYDITWIRQPPGKGLEWLGVIWTGGGTNYNSAFMSRLSISKDSSKSQVFLKMNSLRTDDTAIYYCVRDLRYGYDGFWYFDVWGAGTTVTVSS
# VL: DVVMTQTPLSLPVSLGDQASISCRSSQSIVHSNGNTYLEWYLQKPGQSPKLLIYKVSNRFSGVPDRFSGSGTGTDFTLKISRVEAEDLGVYYCFQGSHVPRTFGGGTKLEIK
# B9: C1.779B (antibody, V domains shown)
# VH: B1 VH with Q3K, K5L, V106F
# VL: B1 VL with D1E, I2T, N20T, I21M, V33G, L113I
# B10: C1.781A (antibody, V domains shown)
# VH: EVQLTESGPGLVQPSQTLSLTCTVSGFSLTSNGVSWVRLPPGKGLEWIAAISSGGNIYYNSALKSRLSISRDTSKSQVFLKMNSLQTEDTAIYFCTRERGWNYPGITNGYYFDYWGQGTSVTVSS
# VL: DIVLTQSPSLLSASVGDRVILSCKAGQKINNYLAWYQQKLGEAPKLLIYNANSLQTGIPSRFSGSGSGTDYTLTISSLQPEDVATYFCQQYNSWYTFGAGTKLEIK
# B11: C1.777a (antibody, V domains shown)
# VH: B2 VH with L5V, V48I, M51I, N56S, S61L, H72N, S76G, Q77H, A96V, Y104F
# VL: B2 VL with S18R, S20T, R22S, Y30N, N53S, N79H, C89Y, N93D
# B12: C1.773a (antibody, V domains shown)
# VH: B2 VH with L5K, N31S, V48I, M51I, N56S, V116A, M117S
# VL: B2 VL with S18R, S20T, R22S, Y30N, N53S, N79H, C89S, L105I
# B13: C1.784a (antibody, V domains shown)
# VH: B2 VH with Q3K, L5E, V48I, H72D, N83S, A96G, G103W, Y108F, V116A, M117S
# VL: B2 VL with S18R, S20T, R22S, Y30N, N53S, Y71F, N79H
# B14: C1.778b (antibody, V domains shown)
# VH: B2 VH with L4R, L5K, V48I, M51I, N56S, H72I
# VL: B6 VL with N30D, A43P, C89Y
# B15: C1.505.hu11 (antibody, V domains shown)
# VH: EVQLQESGPGLVKPSETLSLTCTVSGFSLTSNGVSWVRQPPGKGLEWIAAISSGGSTYYNSAFKSRLTISRDTSKNQVSLKLSSVTAADTAVYYCARHRGYYWSNWGYFDYWGQGTLVTVSS
# VL: DIQLTQSPSSLSASVGDRVTITCKGSQNINNYLAWYQQKPGKAPKLLIYKTNSLQTGIPSRFSGSGSGTDYTLTISSLQPEDFATYYCCQYNDGYTFGQGTKLEIK
# B16: C1.861.hu41 (antibody, V domains shown)
# VH: EVQLQESGPGLVKPSETLSLTCTVSGFSLTSSGVTWVRQPPGKGLEWIAAISSGGNIYYNSAVKSRLTISRDTSKNQVSLKLSSVTAADTAVYYCTRARGTTTAYVMDAWGQGTTVTVSS
# VL: DVQLTQSPSSLSASVGDRVTITCKSSQSLLYSGNQKNYLAWYQQKPGKSPKLLIYWASTRQSGVPSRFSGSGSGTDFTLTISSLQPEDVATYYCQQYYDVLMNMFGGGTKLEIK
# B17: C1.861.hu61 (antibody, V domains shown)
# VH: EVQLVESGGGLIQPGGSLRLSCAVSGFSLTSSGVTWVRQPPGKGLEWIAAISSGGNIYYNSAVKSRLTISRDTSKNTVYLQMNSLRAEDTAVYFCTRARGTTTAYVMDAWGQGTTVTVSS
# VL: B16 VL
# B18: C1.831.hu41 (antibody, V domains shown)
# VH: EVQLQESGPGLVKPSETLSLTCTVSGFSLTSQGVSWVRQPPGKGLEWIAAISSGGNIYYNSVLKSRLTISRDTSKNQVSLKLSSVTAADTAVYYCTRERGWNYPFITSGYYFDYWGQGTLVTVSS
# VL: B15 VL with G25A, S26G, K50N, T51A, C89Q, D93S, G94W
# B19: C1.786a (antibody, V domains shown)
# VH: EVQLTESGLGLVQPSQTLSLTCSVSGFSLTSYNVHWVRQPTGKGLEWMGVIWTGGYTDSNSPLKSRLSITRDTSKSQVFLKMNSLQSEDIATYYCARERHTMGITKSWYFDYWGQGVMVTVSS
# VL: B7 VL with I2V, L3Q, G34A, S53T
# B20: C1.879A (antibody, V domains shown)
# VH: B2 VH with L5T, N31S, V48I, M51I, N56S, I57T, K81N, G103W, Y104S
# VL: B6 VL with N1D, L40V, C89Y
# B21: C1.877 (antibody, V domains shown)
# VH: B2 VH with L5T, N31S, V48I, M51I, N56S, I57T, K81N, G103W, Y104S
# VL: DIVMTQSPSLLSASVGDRVTLSCKGSQNINNYLAWYQQKLGEAPKLLIYETNSLQTGIPSRFSGSGSGTDYTLTLSSLHSEDLATYYCYQYNDGYTFGAGTKLEIK
# B22: C1.876 (antibody, V domains shown)
# VH: B2 VH with E1Q, L5K, V48I, N56S, K81Q, A96T
# VL: B2 VL with N1D, L103V
# Target: T1, cynomolgus monkey ABCC1 (UniProt Q864R9 1-1531)
# T1 sequence (Q864R9 whole entry): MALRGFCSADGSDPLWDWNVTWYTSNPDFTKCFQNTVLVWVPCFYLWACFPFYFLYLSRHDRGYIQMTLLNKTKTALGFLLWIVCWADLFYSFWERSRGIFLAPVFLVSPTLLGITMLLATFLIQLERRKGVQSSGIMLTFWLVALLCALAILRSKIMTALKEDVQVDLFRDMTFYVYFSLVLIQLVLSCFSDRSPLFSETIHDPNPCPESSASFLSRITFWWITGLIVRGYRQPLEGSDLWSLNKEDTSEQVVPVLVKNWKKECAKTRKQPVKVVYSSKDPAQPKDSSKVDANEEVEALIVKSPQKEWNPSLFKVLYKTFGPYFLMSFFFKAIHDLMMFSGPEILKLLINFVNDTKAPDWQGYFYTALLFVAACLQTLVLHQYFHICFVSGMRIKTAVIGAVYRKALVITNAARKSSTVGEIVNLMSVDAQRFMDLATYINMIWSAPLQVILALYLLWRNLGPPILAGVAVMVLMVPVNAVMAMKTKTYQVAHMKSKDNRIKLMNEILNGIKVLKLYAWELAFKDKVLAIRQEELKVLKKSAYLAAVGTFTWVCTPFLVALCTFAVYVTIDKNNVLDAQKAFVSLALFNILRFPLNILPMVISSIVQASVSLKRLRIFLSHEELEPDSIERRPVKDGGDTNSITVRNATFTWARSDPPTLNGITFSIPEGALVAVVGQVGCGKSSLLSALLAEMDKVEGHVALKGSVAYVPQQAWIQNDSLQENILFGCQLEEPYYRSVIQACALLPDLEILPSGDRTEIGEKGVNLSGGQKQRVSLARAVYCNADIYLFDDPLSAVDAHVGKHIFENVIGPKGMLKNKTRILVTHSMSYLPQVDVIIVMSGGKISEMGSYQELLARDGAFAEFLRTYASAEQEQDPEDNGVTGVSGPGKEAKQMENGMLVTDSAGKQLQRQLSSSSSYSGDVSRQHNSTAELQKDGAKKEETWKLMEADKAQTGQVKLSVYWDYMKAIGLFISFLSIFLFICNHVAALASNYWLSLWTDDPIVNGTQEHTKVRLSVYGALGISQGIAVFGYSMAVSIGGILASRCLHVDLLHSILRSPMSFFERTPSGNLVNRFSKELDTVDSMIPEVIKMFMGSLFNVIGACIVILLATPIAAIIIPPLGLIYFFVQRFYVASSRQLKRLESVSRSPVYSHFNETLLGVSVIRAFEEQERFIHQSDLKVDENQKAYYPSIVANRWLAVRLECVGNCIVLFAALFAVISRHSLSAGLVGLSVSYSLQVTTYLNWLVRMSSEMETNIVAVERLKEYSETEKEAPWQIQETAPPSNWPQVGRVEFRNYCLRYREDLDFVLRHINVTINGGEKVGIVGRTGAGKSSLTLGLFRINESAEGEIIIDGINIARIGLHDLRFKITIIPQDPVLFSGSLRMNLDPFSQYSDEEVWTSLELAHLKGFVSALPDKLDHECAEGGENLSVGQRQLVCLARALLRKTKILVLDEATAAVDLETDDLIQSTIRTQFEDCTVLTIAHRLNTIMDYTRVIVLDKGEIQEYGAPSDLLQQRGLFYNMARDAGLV
# Experiment: FACS titration on C6-cC1 cells
row,Binder,Kd [nM]
1,B1,34.1
2,B2,42.3
3,B3,23.3
4,B4,279
5,B5,20.1
6,B6,28
7,B7,8.6

# Target: T2, human ATP Binding Cassette Subfamily C Member 1 (ABCC1) (UniProt P33527 1-1531)
# Experiment: FACS titration on C6 cells
row,Kd [nM],Binder
1,133,B8
2,83.3,B9
3,116,B10
4,41.2,B11
5,33,B12
6,38.2,B13
7,667,B14
8,158,B15

# Target: T2, human ATP Binding Cassette Subfamily C …
# Experiment: FACS cell binding
row,Kd [nM],Binder
1,156,B16
2,218,B17
3,21,B18

# Target: T1, cynomolgus monkey ABCC1
# Experiment: FACS cell binding
row,Kd [nM],Binder
1,64,B16
2,135,B17
3,20,B18

# Target: T2, human ATP Binding Cassette Subfamily C …
# Experiment: FACS titration on H69AR cells
row,Kd [nM],Binder
1,10,B8
2,10.1,B9
3,4.2,B11
4,3.2,B12
5,7,B13
6,8.7,B14
7,8.3,B19

# Target: T2, human ATP Binding Cassette Subfamily C …
# Experiment: FACS titration on C6-hC1 cells
row,Kd [nM],Binder
1,65.1,B1
2,103,B2
3,21.7,B3
4,> 1000,B4
5,21.8,B5
6,98,B6
7,14.4,B7

# Target: T1, cynomolgus monkey ABCC1
# Experiment: FACS titration on C6 cells; C6 cells
row,Kd [nM],Binder
1,27.2,B20
2,66.8,B21
3,28.2,B14
4,3.7,B22
